T1: 1-27 CD3-EpCAM comprising the human 27 mer (human; cynomolgus)
T1 construct: on transfected cells
T1 chain: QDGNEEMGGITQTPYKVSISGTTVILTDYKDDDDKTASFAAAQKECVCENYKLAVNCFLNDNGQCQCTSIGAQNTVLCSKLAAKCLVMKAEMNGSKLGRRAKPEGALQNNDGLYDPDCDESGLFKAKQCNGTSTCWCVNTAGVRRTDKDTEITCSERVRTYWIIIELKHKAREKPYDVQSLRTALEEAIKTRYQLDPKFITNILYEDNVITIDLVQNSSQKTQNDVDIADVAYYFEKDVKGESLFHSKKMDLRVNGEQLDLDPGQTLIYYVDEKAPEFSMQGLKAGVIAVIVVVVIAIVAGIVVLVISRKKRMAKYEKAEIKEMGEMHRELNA

T2: 1-27 CD3-EpCAM comprising the marmoset 27 mer (Callithrix jacchus; cynomolgus)
T2 construct: on transfected cells
T2 chain: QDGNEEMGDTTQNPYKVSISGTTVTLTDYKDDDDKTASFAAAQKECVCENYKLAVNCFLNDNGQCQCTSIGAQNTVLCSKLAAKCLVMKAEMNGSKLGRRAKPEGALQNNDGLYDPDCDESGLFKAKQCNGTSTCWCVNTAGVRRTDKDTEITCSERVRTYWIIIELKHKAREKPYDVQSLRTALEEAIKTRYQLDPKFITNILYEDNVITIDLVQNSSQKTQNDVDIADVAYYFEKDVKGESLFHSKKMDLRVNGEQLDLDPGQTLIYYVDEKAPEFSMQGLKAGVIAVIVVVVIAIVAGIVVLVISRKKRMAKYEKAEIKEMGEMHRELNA

T3: 1-27 CD3-EpCAM comprising the squirrel monkey 27 mer (Saimiri sciureus; cynomolgus)
T3 construct: on transfected cells
T3 chain: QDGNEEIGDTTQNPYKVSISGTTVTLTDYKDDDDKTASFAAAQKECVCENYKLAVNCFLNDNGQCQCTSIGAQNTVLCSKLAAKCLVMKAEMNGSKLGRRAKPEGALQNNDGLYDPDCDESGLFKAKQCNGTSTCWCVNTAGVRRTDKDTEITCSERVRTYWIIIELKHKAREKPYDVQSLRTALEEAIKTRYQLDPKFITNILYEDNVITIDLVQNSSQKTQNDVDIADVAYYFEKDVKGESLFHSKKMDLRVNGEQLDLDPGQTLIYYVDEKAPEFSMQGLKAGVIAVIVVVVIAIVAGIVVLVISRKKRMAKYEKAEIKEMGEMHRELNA


What was measured:
[1] = target: T4, 1-27 CD3-Fc (human); test: ELISA on captured 1-27 CD3-Fc
T4 construct: aa 1-27 of mature human CD3 epsilon, hinge and Fc gamma of human IgG1, His6; also called human CD3 epsilon (aa 1-27)-Fc fusion protein; 27 aa huCD3E

[2] = target: T1, 1-27 CD3-EpCAM comprising the human 27 …; test: FACS on transfected 293-HEK cells
[3] = target: T2, 1-27 CD3-EpCAM comprising the marmoset …; test: FACS on transfected 293-HEK cells
[4] = target: T3, 1-27 CD3-EpCAM comprising the squirrel …; test: FACS on transfected 293-HEK cells
[5] = target: human FAPalpha (on CHO cells) (human, UniProt Q12884 1-760); test: FACS on CHO cells
[6] = target: macaque FAPalpha (on CHO cells) (macaque (Cynomolgus)); test: FACS on CHO cells
Chain of macaque FAPalpha (on CHO cells) (macaque (Cynomolgus)) (chain, as listed by the source): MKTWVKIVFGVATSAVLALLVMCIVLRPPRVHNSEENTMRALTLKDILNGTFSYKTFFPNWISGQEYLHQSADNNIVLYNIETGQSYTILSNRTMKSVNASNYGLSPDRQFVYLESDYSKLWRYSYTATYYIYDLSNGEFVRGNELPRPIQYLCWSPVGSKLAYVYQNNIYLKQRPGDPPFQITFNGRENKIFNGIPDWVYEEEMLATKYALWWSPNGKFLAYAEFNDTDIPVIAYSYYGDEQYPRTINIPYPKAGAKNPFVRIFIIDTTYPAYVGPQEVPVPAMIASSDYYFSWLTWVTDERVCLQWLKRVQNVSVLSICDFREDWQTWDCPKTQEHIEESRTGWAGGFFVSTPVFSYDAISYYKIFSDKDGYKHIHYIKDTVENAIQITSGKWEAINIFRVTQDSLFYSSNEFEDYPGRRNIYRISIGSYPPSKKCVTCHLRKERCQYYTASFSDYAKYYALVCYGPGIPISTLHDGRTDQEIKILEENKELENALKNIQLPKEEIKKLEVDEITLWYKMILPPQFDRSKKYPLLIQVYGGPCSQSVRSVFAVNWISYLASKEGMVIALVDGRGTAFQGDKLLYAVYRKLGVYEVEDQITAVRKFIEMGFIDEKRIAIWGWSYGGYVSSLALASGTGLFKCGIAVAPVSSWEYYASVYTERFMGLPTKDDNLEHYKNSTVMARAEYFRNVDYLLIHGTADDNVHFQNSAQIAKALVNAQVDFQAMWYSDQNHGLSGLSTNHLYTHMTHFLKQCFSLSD

[7] = target: T5, human CD3 (on the human CD3 positive T cell leukemia cell line HPB-ALL) (human, UniProt P07766 23-207); test: FACS on HPB-ALL
T5 construct: whole, on cells; native CD3 complex on T cells; also called human CD3 epsilon
T5 sequence (P07766 23-207): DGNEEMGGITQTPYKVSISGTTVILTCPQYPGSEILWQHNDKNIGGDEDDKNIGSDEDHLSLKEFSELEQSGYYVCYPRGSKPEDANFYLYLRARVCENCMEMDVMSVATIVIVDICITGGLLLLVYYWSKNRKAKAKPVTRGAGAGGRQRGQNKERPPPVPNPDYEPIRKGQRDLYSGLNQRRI

| Binder | binding result [5] | binding result [6] | other results |
| --- | --- | --- | --- |
| A2J HLP (scFv, crude periplasmic preparation, Flag and His6 tags) scFv: EVQLLESGGGLVQPGGSLKLSCAASGFTFNVYAMNWVRQAPGKGLEWVARIRSKYNNYATYYADSVKKRFTISRDDSKNTAYLQMNNLKTEDTAVYYCVRHGNFGNSYLSWWAYWGQGTLVTVSSGGGGSGGGGSGGGGSELVVTQEPSLTVSPGGTVTLTCRSSTGAVTSGYYPNWVQQKPGQAPRGLIGATDMRPSGTPARFSGSLLGGKAALTLSGVQPEDEAEYYCALWYSNRWVFGGGTKLTVL |  |  | binding result [1]: binds |
| E2M HLP (scFv, crude periplasmic preparation, Flag and His6 tags) scFv: EVQLLESGGGLVQPGGSLKLSCAASGFTFNGYAMNWVRQAPGKGLEWVARIRSKYNNYATYYADSVKERFTISRDDSKNTAYLQMNNLKTEDTAVYYCVRHRNFGNSYLSWFAYWGQGTLVTVSSGGGGSGGGGSGGGGSELVVTQEPSLTVSPGGTVTLTCRSSTGAVTSGYYPNWVQQKPGQAPRGLIGATDMRPSGTPARFSGSLLGGKAALTLSGVQPEDEAEYYCALWYSNRWVFGGGTKLTVL |  |  | binding result [1]: binds; binding result [2]: binds; binding result [3]: binds; binding result [4]: binds |
| 86D2HL (scFv, periplasmic preparation) scFv: EVQLLESGGGLVQPGGSLKLSCAASGFDFSTYWMSWVRQAPGKGLEWIGEINPDSSTINYTPSLKDKFIISRDNAKNTLYLQMNKVRSEDTALYYCAGGYYRYPYYYTMDYWGQGTTVTVSSGGGGSGGGGSGGGGSELVMTQSPASLSASVGETVTITCRASGNIHNYLAWYQQKQGKSPQLLVYNAKTLADGVPSRFSGSGSGTQYSLKINSLQPEDFGSYYCQHFWSTPYTFGGGTKLEIK | binds | binds |  |
| 86C12HL (scFv, periplasmic preparation) scFv: EVQLLESGGGLVQPGGSLKLSCAASGFDFSRSWMSWVRQAPGKGLEWIGEINPDSSTINYTPSLKDKFIISRDNAKNTLYLQMSKVRSEDTALYYCAGGYYRYPYYYTMDYWGQGTTVTVSSGGGGSGGGGSGGGGSELQMTQSPASLSASVGETVTITCRASGNIHNYLAWYQQKQGKSPQLLVYNAKTLADGVPSRFSGSGSGTQYSLKINSLQPEDFGSYYCQHFWSTPYTFGGGTKLEIK | binds | binds |  |
| 86D6HL (scFv, periplasmic preparation) scFv: EVQLLESGGGLVQPGGSLKLSCAASGFDFSTYWMSWVRQAPGKGLEWIGEINPDSSTINYTPSLKDKFIISRDNAKNTLYLQMTKVRPEDTALYYCAGGYYRYPYYYTMDYWGQGTTVTVSSGGGGSGGGGSGGGGSELVMTQSPASLSASVGETVTITCRASGSIHNYLAWYQQKQGKSPQLLVYNAKTLADGVPSRFSGSGSGTQYSLKINSLQPEDFGSYYCQHFWSTPYTFGGGTKLEIK | binds | binds |  |
| 86E5HL (scFv, periplasmic preparation) scFv: EVQLLESGGGLVQPGGSLKLSCAASGFDFSRSWMSWVRQAPGKGLEWIGEINPDSSTINYTPSLKDKFIISRDNAKNTLYLQMSKVRSEDTALYYCAGGYYRYPYYYTMDYWGQGTTVTVSSGGGGSGGGGSGGGGSELQMTQSPASLSASVGETVTITCRASENIYSYLAWYQQKQGKSPQLLVYNAKTLAEGVPSRFSGSGSRTQYSLKINSLQPEDFGSYYCQHFWSTPYTFGGGTKLEIK | binds | binds |  |
| 86F2HL (scFv, periplasmic preparation) scFv: EVQLLESGGGLVQPGGSLKLSCAASGFDFSTYWMSWVRQAPGKGLEWIGEINPDSSTVNYTPSLKDKFIISRDNAKNTLYLQMTKVRSEDTALYYCAGGYYRYPYYYTMDYWGQGTTVTVSSGGGGSGGGGSGGGGSELQMTQSPASLSASVGETVTITCRASGNIHNYLAWYQQKQGKSPQLLVYNAKTLADGVPSRFSGSGSGTQYSLKINSLQPEDFGSYYCQHFWSTPYTFGGGTKLEIK | binds | binds |  |
| 86F10HL (scFv, periplasmic preparation) scFv: EVQLLESGGGLVQPGGSLKLSCAASGFDFSTYWMSWVRQAPGKGLEWIGEINPDSSTINYTPSLKDKFIISRDNAKNTLYLQMNKVRSDDTALYYCAGGYYRYPYYYTMDYWGQGTTVTVSSGGGGSGGGGSGGGGSELVMTQSPSSLSASVGETVTITCRASGNIHNYLAWYQQKQGKSPQLLVYNAKTLADGVPSRFSGSGSGTQYSLKINSLQPEDFGSYYCQHFWSTPYTFGGGTKLEIK | binds | binds |  |
| 86F12HL (scFv, periplasmic preparation) scFv: EVQLLESGGGLVQPGGSLNLSCAASGFDFSTYWMSWVRQAPGKGLEWIGEINPDSSTINYTPSLKDKFIISRDNAKNTLYLQMNKVRSDDTALYYCAGGYYRYPYYYTMDYWGQGTTVTVSSGGGGSGGGGSGGGGSELQMTQSPASLSASVGETVTITCRASGNIHNYLAWYQQKQGKSPQLLVYNAKTLADGVPSRFSGSGSGTQYSLKINSLQPEDFGSYYCQHFWSTPYTFGGGTKLEIK | binds | binds |  |
| 87G9HL (scFv, periplasmic preparation) scFv: EVQLLESGGGLVQPGGSLKLSCAASGFDFSRYWMSWVRQAPGKGLEWIGEINPDSSTINYTPSLKDKFIISRDNAKNTLYLQMSKVRSEDTALYYCAGGYYRYPYYYTMDYWGQGTTVTVSSGGGGSGGGGSGGGGSELVMTQSPASLSASVGETVTITCRASGNIHNYLAWYQQKQGKSPQLLVYNAKTLADGVPSRFSGSGSGTQYSLKINSLQPEDFGSYYCQHFWSTPYTFGGGTKLEIK | binds | binds |  |
| MCSP-G4 HLP x E2M HLP (bispecific antibody, C-terminal His6 tag added) QVQLVQSGAEVKRPGASMKVSCKASGYTFTNYYIHWVRQAPGQGLEWMGWINPNSGATNYAQKFQGRVTMTRDTSTSTVYMELSSLRSEDTAVYYCAKSWVSWFASWGQGTLVTVSSGGGGSGGGGSGGGGSELVMTQSPDSLAVSLGERATINCKSSQSVLNSSNNRNYLAWYQQKPGQPPKLLIYWASTRESGVPDRFSGSGSGTDFTLTISGLQAEDVAVYYCQQHYSTPFTFGPGTKVDIKSGGGGSEVQLLESGGGLVQPGGSLKLSCAASGFTFNGYAMNWVRQAPGKGLEWVARIRSKYNNYATYYADSVKERFTISRDDSKNTAYLQMNNLKTEDTAVYYCVRHRNFGNSYLSWFAYWGQGTLVTVSSGGGGSGGGGSGGGGSELVVTQEPSLTVSPGGTVTLTCRSSTGAVTSGYYPNWVQQKPGQAPRGLIGATDMRPSGTPARFSGSLLGGKAALTLSGVQPEDEAEYYCALWYSNRWVFGGGTKLTVL |  |  | binding result [7]: binds |

Reference: patent publication US20120034228A1 (MICROMET, published 2012)
